Source: PMC4967898, “Peptides interfering with protein-protein interactions in the ethylene signaling pathway delay tomato fruit ripening” (Scientific Reports, 2016)

Biological target: T1, LeETR1 (Solanum lycopersicum, UniProt Q41342)
T1 construct: made in house; host or cells: E. coli
T1 sequence (Q41342 1-754): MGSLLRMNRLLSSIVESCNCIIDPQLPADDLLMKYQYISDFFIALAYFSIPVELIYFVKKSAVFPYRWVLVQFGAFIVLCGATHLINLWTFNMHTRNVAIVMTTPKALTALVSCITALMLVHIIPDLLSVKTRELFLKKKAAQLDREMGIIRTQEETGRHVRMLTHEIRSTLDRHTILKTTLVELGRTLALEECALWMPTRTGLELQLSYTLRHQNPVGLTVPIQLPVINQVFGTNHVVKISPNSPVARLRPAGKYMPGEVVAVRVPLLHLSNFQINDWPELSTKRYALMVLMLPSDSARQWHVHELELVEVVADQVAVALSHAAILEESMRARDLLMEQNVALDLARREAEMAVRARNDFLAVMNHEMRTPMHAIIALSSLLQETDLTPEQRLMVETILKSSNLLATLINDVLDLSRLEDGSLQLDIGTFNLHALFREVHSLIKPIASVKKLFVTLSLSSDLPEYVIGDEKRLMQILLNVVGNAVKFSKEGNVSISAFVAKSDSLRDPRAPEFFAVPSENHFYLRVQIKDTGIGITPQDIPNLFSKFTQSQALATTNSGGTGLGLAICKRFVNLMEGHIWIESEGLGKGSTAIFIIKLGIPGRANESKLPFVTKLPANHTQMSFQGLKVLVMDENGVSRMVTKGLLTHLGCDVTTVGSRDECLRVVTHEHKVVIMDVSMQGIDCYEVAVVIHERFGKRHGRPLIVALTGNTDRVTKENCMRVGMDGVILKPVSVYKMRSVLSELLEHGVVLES
Experiment: MST interaction of labeled LeETR1 with LeEIN2^462–1316
Assay type: binding, tomato
Conditions: 0.4 μM LeETR1 labeled with Alexa Fluor 488 succinimidyl-ester, LeEIN2^462–1316 4.69 nM to 9.6 μM, 50 mM Tris-HCl pH 8.0, 300 mM NaCl, 0.015% (w/v) Fos-Choline-16, 80% MST power, independent triplicates, mean +/− standard deviation, read-out: Kd of LeEIN2-LeETR1 complex formation
Excerpt: Protein-protein interaction of LeEIN2 and LeETR1 was studied by microscale thermophoresis (MST). Thermophoresis, the motion of molecules in a temperature gradient, strongly depends on the hydration-shell, the charge and the size of the moving molecules. Typically, at least one of these features changes when a protein-protein interaction occurs. Thus, MST represents a highly sensitive and reliable tool to study protein-protein interactions. By recording the motion of a fluorescence-labeled molecule in the presence of increasing concentrations of a putative binding partner, the dissociation constant (Kd) reflecting the affinity of the interaction and the stability of the complex can be calculated. Recombinant LeETR1 was labeled with the fluorescent dye Alexa Fluor 488 and 0.4 μM of labeled LeETR1 was mixed with increasing concentrations of LeEIN2^462–1316 until saturation was reached (9.6 μM as final concentration). Binding of receptor and EIN2 was observed as a clear and strong response in the MST signal. […]
Figure 1 Interaction studies of tomato ETR1 and EIN2 via MST. […] Normalized fluorescence as MST signal is plotted against increasing LeEIN2^462–1316 (●) concentrations as described. […]

B1: LeEIN2^462–1316: recombinant C-terminal part of tomato EIN2, expressed in E. coli (protein)
chain: LKSASSRFDAQAFLQTHVPEPYSECNQLGASNAMFGLVEGSSQKQEGAFHVEKSLVSHPDLSTKDPDQLLPESLLDFEKVHQLATIDESKSETTFSAPAVVHPEVPVSAGASPSVKSVCNEVSGVVSVDTSVFNTETVDVAEKTLRIEGDMANDRDDGDSWEEPEEAIKGVSENAQSFISDGPGSYKSLSGKLEDTGSGTGSLSRLAGLGRAARRQLTEALNEFWGQLFDYHGVATAEAKSKKLDIILGLDSKMNPKPAPASLKVESSAYIPSGSARIPEPLINSHVYSPKQQFASNIVDSAYRVPKEPSSTSSMWSNHMKLVGAYVQSSNSNMLDSGERRYSSMRIPATSAGYDQQPATVHGYQITAYLNQLAKERGSDYLNGQLESPSPRSVSSLTSNYAEPLARVSGQKPQSGVSSRAPPGFGNVPVGRNNSMQPTNTTSVDHSSTETAESVAGSANSKKYYSLPDISGRYVPRQDSIVSDARAQWYNSMGFGQSGGRSTYEQAYMSGSLRAGGPQRYEHSPKVCRDAFSLQYSSNSGTGSLWSRQPFEQFGVAGKPDVGSGDHGTVLSSSAQESTSTVDLEAKLLQSFRSCIVKLLKLEGSEWLFRQDDGADEDLIGRIAAREKFLYEAETREISRLTNIGESHFSSNRKPGSAPKPEEMDYTKFLVMSVPHCGEGCVWKVDLIISFGVWCIHRILELSLMESRPELWGKYTYVLNRLQGIVDLAFSKPHSPTSHCFCLQIPAGRQQKASPPPISNGNLPPQAKQGRGKCTTAAMLLEMIKDVETAISCRKGRTGTAAGDVAFPKGKENLASVLKRYKRRLSNKPVGNQEVAGVAGPRKVTLSASSPPFVL
modifications: unlabeled in the MST titration of labeled LeETR1; Alexa Fluor 488 label in the reverse MST titration; Alexa Fluor 568 succinimidyl-ester label in the FRET assay; left off: His10, end not stated, state
notes: recombinant C-terminal part of tomato EIN2, expressed in E. coli
  Kd: 619 nM
